Experimental data reported in publication PMC7697101.
No end group written: not given here.

Biological target: formyl peptide receptor 2 (Fpr2/ALX), murine (mouse (endogenous in C57BL/6 and STM mice)) (UniProt O88536)
Sequence of UniProt O88536 (O88536 whole entry): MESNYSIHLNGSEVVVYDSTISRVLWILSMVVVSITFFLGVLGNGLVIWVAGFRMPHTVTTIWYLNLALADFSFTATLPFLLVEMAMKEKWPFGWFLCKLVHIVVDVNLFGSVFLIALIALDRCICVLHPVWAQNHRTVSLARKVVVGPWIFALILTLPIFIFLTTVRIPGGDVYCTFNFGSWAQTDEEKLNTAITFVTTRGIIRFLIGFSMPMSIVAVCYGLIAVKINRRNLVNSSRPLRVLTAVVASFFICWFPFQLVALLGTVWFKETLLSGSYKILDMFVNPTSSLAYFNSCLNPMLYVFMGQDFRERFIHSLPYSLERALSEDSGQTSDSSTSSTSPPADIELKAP

B1: AnxA1 mimetic peptide AnxA1_(Ac2-26) (peptide)
peptide: Ac-AMVSEFLKQAWFIENEEQEYVQTVK
increase in blood flow (cessation time) in cerebral venules of sickle cell transgenic mice given AnxA1 (Ac2-26) 4 mg/kg vs. saline, light/dye thrombosis; mitigated by co-administration of Boc2 or WRW4: 63.5%
